The results in this text go back to article PMC3706390.

The target of data set [1] is L30 E110A (rat, UniProt P62890 1-115, E110A). As to the kind of experiment: EMSA; comparable to WT; 30 mM Tris-HCl pH 8.0, 75 mM KCl, 5 mM MgCl2, 1 mM DTT, 0.04 ug/uL BSA, 10% glycerol, 50 ng/uL yeast tRNA, 30 C 15 min; EMSA gels 0.5X TBE at 4 C; RNase digesti. In general terms: In EMSA bound probe runs differently from free probe, usually more slowly.
Data set [2] has as its target L30 M108A (rat, UniProt P62890 1-115, M108A). The description is as above.
Data set [3] addresses L30 L29A (rat, UniProt P62890 1-115, L29A). The data set is described as above.
The target of data set [4] is L30 V91A (rat, UniProt P62890 1-115, V91A). The description is as above.
Data set [5] concerns the target L30 K87A (rat, UniProt P62890 1-115, K87A). The experiment in a line: EMSA; little effect vs WT; 30 mM Tris-HCl pH 8.0, 75 mM KCl, 5 mM MgCl2, 1 mM DTT, 0.04 ug/uL BSA, 10% glycerol, 50 ng/uL yeast tRNA, 30 C 15 min; EMSA gels 0.5X TBE at 4 C; RNase digesti.
The target in data set [6] is L30 Y89A (rat, UniProt P62890 1-115, Y89A). The experiment in a line: EMSA; L30 at 50% WT binding; 30 mM Tris-HCl pH 8.0, 75 mM KCl, 5 mM MgCl2, 1 mM DTT, 0.04 ug/uL BSA, 10% glycerol, 50 ng/uL yeast tRNA, 30 C 15 min; EMSA gels 0.5X TBE at 4 C; RNase digesti.
In data set [7] the target is L30 L35A (rat, UniProt P62890 1-115, L35A). As to the kind of experiment: EMSA; reduced by 14%, significant; 30 mM Tris-HCl pH 8.0, 75 mM KCl, 5 mM MgCl2, 1 mM DTT, 0.04 ug/uL BSA, 10% glycerol, 50 ng/uL yeast tRNA, 30 C 15 min; EMSA gels 0.5X TBE at 4 C; RNase digesti.
Data set [8] deals with L30 K36A (rat, UniProt P62890 1-115, K36A). The experiment in a line: EMSA; reduced by 60%; 30 mM Tris-HCl pH 8.0, 75 mM KCl, 5 mM MgCl2, 1 mM DTT, 0.04 ug/uL BSA, 10% glycerol, 50 ng/uL yeast tRNA, 30 C 15 min; EMSA gels 0.5X TBE at 4 C; RNase digesti.

Turning to GGGACCGGAGUGUCGCAAGACGCAGAGAUGGUCC (structured_RNA) [L30 RNA (stem-loop of L30 pre-mRNA)], the binding result in data set [1], in data set [2], in data set [3], in data set [4] and in data set [5] was “binds” throughout. In addition, the binding signal in data set [6] was 37 % of WT binding; in data set [7], 86 % of WT binding; in data set [8] it was 40 % of WT binding.
